Laboratory results reported in patent publication US20170198014A1, “POLYPEPTIDES AND THEIR USE FOR TREATING INFLUENZA” ([…] ITS CENTER FOR COMMERCIALIZATION, priority 2014, published 2017).

What was measured:
[1] = stability after loop truncation and trimerization; details: trimerized, truncation of 3 residues after position 43
[2] = biological target: HA of H3N2 A/Hong Kong/1/1968 (Influenza A virus, UniProt Q91MA7)
[3] = biological target: H1 (A/NewCaledonia/20/1999) (Influenza A virus, UniProt Q6WG00); details: read-out: affinity constant via yeast surface display

Row | Molecule | stability [1] | binding when trimerized [2] | Kd [3]
1 | GIVNVPNPNTTKYQQLARTAVAIYNYHEQAHLCFVENLNVKEQGNYYYITLAACDDAGKKAIYEAKIGVVESAGWTGVEEFKLV (protein) GIVNVPNPNTTKYQQLARTAVAIYNYHEQAHLCFVENLNVKEQGNYYYITLAACDDAGKKAIYEAKIGVVESAGWTGVEEFKLV | stability is improved | binds extremely tightly | 
2 | GIVNVPNCNTTKYQQLARTAVAIYNYHEQAHLTFVENLNCKEQGNYYYITLAATDDAGKKAIYEAKIGVVESAGWTGVEEFKLV (protein) GIVNVPNCNTTKYQQLARTAVAIYNYHEQAHLTFVENLNCKEQGNYYYITLAATDDAGKKAIYEAKIGVVESAGWTGVEEFKLV | stability is improved | binds extremely tightly | 
3 | ASGMLAISMDTDKISNSFEDCKYFLIELKSAGWTNTIFNDESGKEEIVKMGVDAIICKNISEENYKKFSKKIEIYHAEGDDVNKNISLFLEGELSKISNP (protein) ASGMLAISMDTDKISNSFEDCKYFLIELKSAGWTNTIFNDESGKEEIVKMGVDAIICKNISEENYKKFSKKIEIYHAEGDDVNKNISLFLEGELSKISNP |  |  | 23.2 nM
